Consider two substances from paper PMC8221791.

Test [1] deals with recombinant CD36 (UniProt P16671). In words: static adhesion assay of infected erythrocytes on spots of recombinant protein; recombinant receptor adsorbed as 20 ul spots on petri dishes in PBS overnight at 4°C (two-fold dilutions 10 to 0.31 ug/ml), blocked with Albumax; Percoll-purified trophozoite-stage infected HbAA RBCs, 4x10^6 cells per ml, 1 h at 37°C; washed, fixed, Giemsa-stained, counted per image; four-parameter log-logistic fit.
UniProt P16671, sequence (P16671 whole entry): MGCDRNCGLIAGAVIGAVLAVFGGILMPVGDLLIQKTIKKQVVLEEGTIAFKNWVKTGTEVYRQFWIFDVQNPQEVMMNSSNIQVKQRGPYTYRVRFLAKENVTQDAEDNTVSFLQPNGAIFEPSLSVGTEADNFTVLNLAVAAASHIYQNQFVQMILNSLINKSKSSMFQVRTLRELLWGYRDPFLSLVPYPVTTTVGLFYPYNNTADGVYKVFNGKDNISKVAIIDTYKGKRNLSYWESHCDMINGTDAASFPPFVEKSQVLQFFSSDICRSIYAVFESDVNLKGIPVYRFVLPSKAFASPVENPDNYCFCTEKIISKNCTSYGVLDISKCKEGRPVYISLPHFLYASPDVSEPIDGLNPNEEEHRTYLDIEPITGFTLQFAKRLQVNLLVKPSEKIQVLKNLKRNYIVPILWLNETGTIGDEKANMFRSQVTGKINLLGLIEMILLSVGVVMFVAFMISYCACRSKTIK

For test [2] the target is unchanged. In words: static adhesion assay of infected erythrocytes on spots of recombinant protein; recombinant receptor adsorbed as 20 ul spots on petri dishes in PBS overnight at 4°C (two-fold dilutions 10 to 0.31 ug/ml), blocked with Albumax; Percoll-purified trophozoite-stage infected HbAS (sickle-trait) RBCs, 4x10^6 cells per ml, 1 h at 37°C; washed, fixed, Giemsa-stained, counted per image; four-parameter log-logistic fit.

The target in test [3] is recombinant Endothelial Protein C Receptor (EPCR) (UniProt Q9UNN8). In words: static adhesion assay of infected erythrocytes on spots of recombinant protein; recombinant receptor adsorbed as 20 ul spots on petri dishes in PBS overnight at 4°C (two-fold dilutions 10 to 0.31 ug/ml), blocked with Albumax; Percoll-purified trophozoite-stage infected HbAA RBCs, 4x10^6 cells per ml, 1 h at 37°C; washed, fixed, Giemsa-stained, counted per image; four-parameter log-logistic fit.
UniProt Q9UNN8, sequence (Q9UNN8 18-210): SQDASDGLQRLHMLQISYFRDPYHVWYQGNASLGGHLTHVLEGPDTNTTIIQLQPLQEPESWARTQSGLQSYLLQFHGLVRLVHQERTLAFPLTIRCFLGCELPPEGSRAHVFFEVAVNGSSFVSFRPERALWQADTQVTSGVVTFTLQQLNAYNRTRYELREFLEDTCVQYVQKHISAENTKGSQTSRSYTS

Test [4] shares this target. In words: static adhesion assay of infected erythrocytes on spots of recombinant protein; recombinant receptor adsorbed as 20 ul spots on petri dishes in PBS overnight at 4°C (two-fold dilutions 10 to 0.31 ug/ml), blocked with Albumax; Percoll-purified trophozoite-stage infected HbAS (sickle-trait) RBCs, 4x10^6 cells per ml, 1 h at 37°C; washed, fixed, Giemsa-stained, counted per image; four-parameter log-logistic fit.

As to “IT4var30 PfEMP1 (CD36-binding P. falciparum Erythrocyte Membrane Protein 1 variant of strain IT4) (natural protein)”, the CD36 spot concentration at estimated 50% adhesion in test [1] is 2.5 µg/mL; in test [2], 2.7 µg/mL.
As to “IT4var20 PfEMP1 (EPCR-binding P. falciparum Erythrocyte Membrane Protein 1 variant of strain IT4) (natural protein)”, the EPCR spot concentration at estimated 50% adhesion in test [3] is 0.3 µg/mL; in test [4] it was 0.5 µg/mL.
